Measurements taken from patent publication US20240400689A1 (ANTENGENE BIOLOGICS, published 2024).
Numbering of substitutions follows the chain as printed. Read-outs that look alike come from different tables or passages of the source.

B1: 10-G6-C4-B2_hVH5-VL1_PTM (antibody, V domains shown)
VH: EVQLVESGGGLVQPGRSLRLSCTTSGFTLSDYYMSWVRQAPGKGLEWVGFMRNKANAYTTEYSASVRGRFTISRDTSKSIIYLQMNSLKTEDTAVYYCVRDREGRPFAYWGQGTLVTVSS
VL: DIVMTQSPDSLAVSLGERATINCKSSQSLLNAINQKNFLTWYQQKPGQPPKLLIYWASTRESGVPDRFSGSGSGTDFTLTISSLQAEDLAVYYCQNDYTYPLTFGQGTKLEIK
notes: humanized, PTM-optimized antibody from 10-G6-C4-B2
B2: 10-G6-C4-B2_hVH3-VL3_PTM (antibody, V domains shown)
VH: B1 VH with R16G, T23A, I80S
VL: DIQMTQSPSSLSASVGDRVTITCKSSQSLLNAINQKNFLTWYQQKPGKAPKLLIYWASTRESGVPSRFSGSGSGTDFTLTISSLQPEDLATYYCQNDYTYPLTFGQGTKLEIK
notes: as for B1
B3: 10-G6-C4-B2_hVH4-VL2_PTM (antibody, V domains shown)
VH: B1 VH with V12I, R16G, T23A, A40P, G49S, I80T, K89R, T90A
VL: DIVMTQSPLSLPVTPGEPASISCKSSQSLLNAINQKNFLTWYLQKPGQSPQLLIYWASTRESGVPDRFSGSGSGTDFTLKISRVEAEDLGVYYCQNDYTYPLTFGQGTKLEIK
notes: as for B1
B4: 10-G6-C4-B2_hVH5-VL3_PTM (antibody, V domains shown)
VH: B1 VH
VL: B2 VL
notes: as for B1
B5: MGC018 (antibody, V domains shown)
VH: EVQLVESGGGLVKPGGSLRLSCAASGFTFSSYGMSWVRQAPGKGLEWVATINSGGSNTYYPDSLKGRFTISRDNAKNSLYLQMNSLRAEDTAVYYCARHDGGAMDYWGQGTTVTVSS
VL: DIQMTQSPSSLSASVGDRVTITCRASESIYSYLAWYQQKPGKAPKLLVYNTKTLPEGVPSRFSGSGSGTDFTLTISSLQPEDFATYYCQHHYGTPPWTFGQGTRLEIKR
B6: 22-E11-C3-F2 (human IgG1 chimeric antibody) (antibody, V domains shown)
VH: QIQLVQSGPELKRPGETVKISCKASGYSFTNYGMNWVKQAPGKGLKWMGWINPYTGEPTYADDFKGRFAMSLETSASAAYLQINNLKNEDMATYFCGRDDGYHYTMNYWGQGTSVTVSS
VL: DVVMTQPPLSLPVSLGDQASISCRSSQSLIHSNGDTYLHWYLQKPGQSPKLLIYKVSIRFSGVPDRFSGSGSGTDFTLKISRVEAEDLGVYFCSQSTYVPWTFGGGTKLEIK
notes: human IgG1 chimeric antibody of the mouse clone
B7: 20-C5-D7-D3 (human IgG1 chimeric antibody) (antibody, V domains shown)
VH: EVQLVESGGDLVKPGGSLKLSCAASGFTFRSYGMSWVRQTPDKRLEWVATISGGGNYTYYPDSVKGRFTISRDNAKNTLYLQMSSLKSEDTAMYYCARHEGLPLDYWGQGTTLTVSS
VL: DIQMTQSPASLSASVGETVTITCRASENIYSYLAWYQQKQGKSPQLLVYNAKTLAEGVPSRFSGSGSGTQFSLKINSLQPEDFGNFYCQHHYGTPTWTFGGGTKLEIK
notes: as for B6
B8: 15-C8-B5-G7 (human IgG1 chimeric antibody) (antibody, V domains shown)
VH: QVQLQQPGAELVKPGASVKLSCKASDYTFTSHWMHWVKQRPGQGLEWIGMIHPNSGTTHYNENFKNKATLTVDNSSSTAYMQLSSLTSEDSAVYYCAWGSSNSYFYAMAYWGQGTSVTVSS
VL: QAVVTQESALTTSPGETVTLTCRSSTGAVTTSNYANWVQEKPAHLFTGLIGGTNNRAPGVPARFSGSLIGDKAALTITGAQTEDEAIYFCALWFSNHLVFGGGTKLTVL
notes: as for B6
B9: 13-E4-G9-A4 (human IgG1 chimeric antibody) (antibody, V domains shown)
VH: EVMLVESGGGLVKPGGSLKFSCAASGFTFITYAMSWVRQTPEKRLEWVATISGGGIDTYYPDSVKGRFTISRDNAKNTLYLQVNSLRSEDTAMYYCTRQGSQGWGAMDYWGQGTSVTVSS
VL: QIVLTQSPPIMSASPGERVTMTCRASSRVSFMHWYQQKSGTSPRRWIYETSKLASGVPDRFSGSVSGTSYSLTISSMEAEDAATYYCQQWSSNPLTFGAGTKLELK
notes: as for B6
B10: 25-C8-D7-C5 (human IgG1 chimeric antibody) (antibody, V domains shown)
VH: B9 VH with M3Q, V5Q, I30S, V83M, T97A, Q102K
VL: B9 VL with P9A, R18K, R28S, R44K, V65G
notes: as for B6
B11: 20-A2-D10-G8 (human IgG1 chimeric antibody) (antibody, V domains shown)
VH: QVQLQQSGPELVRPGVSVKISCKGSGYTFTDYTMHWVKESHAQSLEWIGVISTYYGNTNYNQNFKGKATLTVDKSSSTAYMELAGLTSEDSAIYYCARASYGSGYGPYYWYFDVWGAGTTVTVSS
VL: DIQMTQSPASLFASVGETVTITCRASEKIYSYLAWYFQKQGKSPQFLVYNANALAEGVPSRFSGSGSGTQFSLKIKSLQPEDFGTYYCQHHYGSPVTFGAGSKLELK
notes: as for B6
B12: 10-B9-D10-A12 (human IgG1 chimeric antibody) (antibody, V domains shown)
VH: B11 VH with Q1E, Q6E, E39L, Q43K, N63K, G85R
VL: B11 VL with K76N, S94T
notes: as for B6
B13: 8-C3-E3-F3 (human IgG1 chimeric antibody) (antibody, V domains shown)
VH: EVQLVESGGGLVQPGGSLKLSCAASGFTFSNYGLSWVRLTPDKRLEVVATIGSYGGNTYYPDSVKGRFTISRDNAKNTLYLQMSSLKSEDTAIYYCARDIYYGNSEAWFAYWGQGTLVTVSA
VL: DIVMTQAAFSNPVTLGTSASISCRSSKSLLHSNGITYLYWYLQKPGQSPQLLIYQMSNLASGVPDRFSSSGSETDFTLRISRVEAEDVGVYYCAQNLELPWTFGGGTKLEIK
notes: as for B6

Key:
[1] = molecular target: T1, HUMAN B7H3 (Biacore analyte) (human, UniProt Q5ZPR3 29-461, limits assumed); experiment: SPR, Biacore 8K, antibody captured, B7H3 as analyte, 1:1 binding
T1 construct: also called hB7H3
T1 sequence (looked up): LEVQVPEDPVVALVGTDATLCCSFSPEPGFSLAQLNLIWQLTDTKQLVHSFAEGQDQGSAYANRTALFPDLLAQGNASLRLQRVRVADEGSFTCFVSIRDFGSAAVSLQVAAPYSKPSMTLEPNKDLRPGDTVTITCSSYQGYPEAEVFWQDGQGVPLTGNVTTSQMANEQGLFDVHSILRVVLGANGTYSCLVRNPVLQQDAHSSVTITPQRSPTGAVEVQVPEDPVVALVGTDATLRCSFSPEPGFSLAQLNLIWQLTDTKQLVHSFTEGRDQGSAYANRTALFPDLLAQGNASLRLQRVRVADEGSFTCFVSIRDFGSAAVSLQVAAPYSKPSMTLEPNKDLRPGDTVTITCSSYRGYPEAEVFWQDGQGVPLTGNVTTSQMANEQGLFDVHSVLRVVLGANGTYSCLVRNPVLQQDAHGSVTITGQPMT

[2] = molecular target: T2, human CD276 protein (human, UniProt Q5ZPR3 29-534); experiment: FACS on SKOV3 cells
T2 construct: whole, on cells; for SKOV3 and the other cancer lines the protein is the cells' own; also called B7-H3; B7H3
T2 sequence (looked up): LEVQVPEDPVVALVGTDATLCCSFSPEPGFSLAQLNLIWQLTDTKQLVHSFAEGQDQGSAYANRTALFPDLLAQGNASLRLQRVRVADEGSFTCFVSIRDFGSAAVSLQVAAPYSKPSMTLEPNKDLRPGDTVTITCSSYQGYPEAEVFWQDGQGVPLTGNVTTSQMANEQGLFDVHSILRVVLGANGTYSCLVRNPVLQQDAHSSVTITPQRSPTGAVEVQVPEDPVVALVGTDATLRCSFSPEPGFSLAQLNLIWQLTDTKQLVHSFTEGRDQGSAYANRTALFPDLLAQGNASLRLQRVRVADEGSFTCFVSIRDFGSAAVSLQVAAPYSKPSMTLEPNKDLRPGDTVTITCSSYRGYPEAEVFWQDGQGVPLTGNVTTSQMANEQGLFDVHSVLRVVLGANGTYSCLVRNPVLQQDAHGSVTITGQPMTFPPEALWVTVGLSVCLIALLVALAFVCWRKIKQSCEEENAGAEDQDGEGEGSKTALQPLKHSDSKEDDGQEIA
How it was run: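 Human IgG1 chimeric antibodies were tested for binding to trypsin-detached SKOV3 ovarian cancer cells by flow cytometry, with cells washed in FACS buffer and kept in the dark before acquisition. Titration read-out was MFI plotted against antibody concentration (nM).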

[3] = molecular target: T2, human CD276 protein; experiment: cell-based or functional assay
[4] = molecular target: T2, human CD276 protein; experiment: cell-based or functional assay; remark: listed apart in the source
[5] = molecular target: T1, HUMAN B7H3 (Biacore analyte); experiment: SPR, Biacore 8K, antibody captured, B7H3 as analyte, 1:1 binding; remark: listed apart in the source
[6] = molecular target: T2, human CD276 protein; experiment: cell-based or functional assay; remark: listed apart in the source

Binder | Kd [1] [nM] | koff [1] [s⁻¹] | kon [1] [M⁻¹ s⁻¹] | EC50 [2] [µg/mL] | MFI (Max) [2] | EC50 of antibody induced CDC effect [3] [nM] | Top cytotoxicity (%), CDC [3] [%] | IC50 of indirect ADC cytotoxicity on SKOV3 [4] [nM] | Kd [5] [nM] | koff [5] [s⁻¹] | kon [5] [M⁻¹ s⁻¹] | EC50 of antibody induced ADCC effect on SKOV3 [6] [µg/mL]
B1 | 0.0929 | 1.37e-05 | 147000 |  |  |  |  |  |  |  |  | 
B2 | 0.0087 | 1.02e-06 | 118000 |  |  |  |  |  |  |  |  | 
B3 | 1.35 | 7.12e-05 | 52700 |  |  |  |  |  |  |  |  | 
B4 | 0.00692 | 1.01e-06 | 146000 |  |  |  |  |  |  |  |  | 
B5 |  |  |  | 0.385 | 2540 | 1.67 | 93.3 | 0.013 | 0.459 | 0.000408 | 889000 | 
B6 |  |  |  | 0.523 | 5540 |  |  | 0.016 |  |  |  | 0.0179
B7 |  |  |  | 0.941 | 2310 |  |  | 0.007 | 0.644 | 0.000416 | 645000 | 0.069
B8 |  |  |  | 0.293 | 2140 | 7.54 | 86.1 | 0.008 | 0.399 | 0.000196 | 492000 | 0.697
B9 |  |  |  | 1.77 | 3080 |  |  | 0.021 |  |  |  | 0.876
B10 |  |  |  | 2.03 | 3480 | 2.42 | 91.4 | 0.018 | 1.2 | 0.000243 | 203000 | 0.123
B11 |  |  |  | 0.791 | 3110 | 1.92 | 85.1 | 0.007 | 0.555 | 0.000282 | 508000 | 0.263
B12 |  |  |  | 2.08 | 3880 |  |  | 0.021 | 0.752 | 0.000282 | 375000 | 0.259
B13 |  |  |  | 0.643 | 2880 |  |  | 0.012 | 0.444 | 0.00044 | 990000 | 0.111
